Entries after “also recorded” stand apart in the source; their conditions may differ. One block for each molecule: values may come before it.
Assays:
[1] = target: T1, human recombinant CCR5 (hrCCR5) (Homo sapiens, UniProt P51681); experiment: hrNAMPT binding to hrCCR5 (ELISA); conditions: hrNAMPT(1) 0-800 nM on hrCCR5-coated ELISA plates, BSA binding deducted; read-out: dissociation constant (KD)
T1 construct: purchased Abcam
Experimental: hrNAMPT binding to hrCCR5: ELISA plates (Medium binding, Greiner Bio-One) were coated with 1% BSA or 20 nM of GST-fused recombinant human CCR5 (hrCCR5, Abcam) in PBS overnight at 4° C. Wells were blocked for 1 h at room temperature with 1% BSA in PBS containing 0.05% Tween-20 (PBS-T). Wells were washed 3 times with PBS-T and further incubated with hrNAMPT(1) (Peprotech) at increasing concentration (0 nM to 800 nM) for 1 h in PBS-T with 0.1% BSA.

[2] = system: C2C12 myoblasts; experiment: C2C12 myoblast proliferation (EdU incorporation); assay type: cell-based, mouse; conditions: 6 h in growth media
Experimental: Larvae: Labelling and detection was carried out as previously described (Nguyen, P. D. et al. Muscle stem cells undergo extensive clonal drift during tissue growth via Meox1-mediated induction of G2 cell-cycle arrest. […] Cell culture: Cells were incubated for 1 h in media supplemented with 10 μM EdU. […] Cells were processed using the Click-iTTM EdU Alexa FluroTM 647 imaging Kit (Thermo Fisher) following the manufacturer's protocol. The mouse muscle cell line […]. Serial passaging and differentiation of myogenic cells isolated from dystrophic mouse muscle. Nature 270, 725 (1977) were cultured in growth media (Dulbecco's Modified Eagle Medium (4.5 g/l D-Glucose, No L Glutamine, No Sodium Pyruvate (Gibco))+20% Fetal Bovine Solution-One Shot (Gibco)+1% Glut Max 100x (Gibco)). Cells were maintained at 37° C., 5% CO2. Cells at 70% confluence, passage 8 were extracted from T75 flasks with 0.025% Tryspin EDTA (Gibco), neutralised in growth media, spun at 180×g for 5 min to pellet cells. The cells were then resuspended in 10 ml of fresh growth media. 500 μl of cells were plated on a 8-well on cover glass II (Sarstedt) chamber slide at a density of 1×10^3 cells/ml. Cells were left 4 h at 37° C. to re-attach. For drug treatments, the media were supplemented with appropriate doses and cultured for 6 h.

[3] = system: PAX7+ satellite cells; experiment: Primary mouse myoblast mono- and co-cultures, PAX7+ satellite cell proliferation (EdU); assay type: cell-based; conditions: myoblast monoculture (MB) and MB+3T3 co-culture, 24 h
Experimental: Larvae: Labelling and detection was carried out as previously described (Nguyen, P. D. et al. Muscle stem cells undergo extensive clonal drift during tissue growth via Meox1-mediated induction of G2 cell-cycle arrest. […] Cell culture: Cells were incubated for 1 h in media supplemented with 10 μM EdU. […] Cells were processed using the Click-iTTM EdU Alexa FluroTM 647 imaging Kit (Thermo Fisher) following the manufacturer's protocol. For isolation of primary mouse myoblasts, limb skeletal muscle from E17.5 C57/BL6J mice were minced and digested in 0.125% Trypsin at 37° C. for 20 min. […] Myoblasts were again depleted for fibroblasts prior to co-culturing on gelatin-coated 48 well plates in DMEM+20% FBS+10% L929-conditioned medium. 100,000 myoblasts were plated with either 7,500 MafB/c-Maf deficient (Maf-DKO) macrophages (Aziz, A., Soucie, E., Sarrazin, […]. MafB/c-Maf deficiency enables self-renewal of differentiated functional macrophages. […] For drug treatments, the media were supplemented with appropriate doses and cultured for 24 h.

[4] = system: wound-resident muscle stem cells; experiment: Larval zebrafish needle stab muscle injury, wound site proliferation (EdU); assay type: in vivo; conditions: needle stab injury; for wound site muscle stem cell proliferation: agent alone
Experimental: 4dpf larvae were anaesthetized in 0.01% tricaine (MS-222) (Sigma-Aldrich) in Ringer's solution. Mechanical injures were targeted either to the dorsal or ventral myotome above the cloaca when the larvae is oriented dorsal to the top, anterior to the left. Needle-stick injury was carried out as previously described (Gurevich, D. B. el al. Asymmetric division of clonal muscle stem cells co-ordinate muscle regeneration in vivo. Science 353 6295 aad9969 (2016)). Briefly, the myotome was subjected to a single 30-gauge needle puncture that generates an extensive injury with many damaged muscle fibres. For laser-induced injury, anaesthetised larvae were mounted in a thin layer of 1% low-melt agarose in Ringer's solution. Injuries were carried out using a UV-nitrogen laser pulsed through a coumarin 440 nm dye cell coupled to a Zeiss Axioplan microscope (MicroPoint Laser System, Andor Technology). On average a laser injury required pulses for 5-10 sec from laser beams focused through a 40× water immersion objective. For time-lapse analysis of the immediate response to injury, muscle fibre ablations were achieved using a SIM scanner (Olympus) at 790 nm and 200 msec dwell time at 100% laser power on an Olympus FVMPE-RS upright multi-photon microscope equipped with a 25×/1.05 water immersion objective. Injury-responding macrophages were tracked using the manual tracking plugin in Fiji.
Cell ablation was carried out as previously described (Pisharath, H. & Parsons, M. J. in Zebrafish 133-143 (Springer, 2009)) with minor modifications. Larvae at the appropriate stage were incubated in 5-10 mM metronidazole (Mtz) (Sigma-Aldrich) in Ringer's solution and daily refreshed until experimental end point. Drug treatments were carried out by incubating 4 dpf needle stick injured larvae in 5 and 10 μM cenicriviroc (CVC) (Med Chem Express) and 5 and 10 μM maraviroc (MVC) (Med Chem Express) in Ringer's solution immediately post injury and refreshed daily.
The effect of drug treatment on laser ablation muscle injury was assayed by treating larvae with 5 μM CVC for 2 h prior to injury and with larvae being maintained in the drug until experimental end point. […] Chemokine supplementation experiments were carried out in plasticware coated with 0.1% bovine serum albumin (BSA) overnight (rinsed in Ringer's solution prior to use) to minimise protein adsorption. Larvae were treated with 57 nM recombinant human visfatin (hrNAMPT(1)) (PeproTech), 57 nM recombinant murine CCL8/MCP-2 (mrCCL8) (PeproTech) and combinations with Mtz and CVC.
Larvae: Labelling and detection was carried out as previously described (Nguyen, P. D. et al. Muscle stem cells undergo extensive clonal drift during tissue growth via Meox1-mediated induction of G2 cell-cycle arrest. Cell Stem Cell 21, 107-119. e106 (2017))^55 with minor alteration. 6 dpf/2 dpi larvae were pulsed with 2.5 nM EdU (Thermo Fisher) for 1h and chased for a further 1.5 h prior to fixation. Cell culture: Cells were incubated for 1 h in media supplemented with 10 μM EdU. Following Edu pulse, C2C12 cells were fixed immediately, while primary mouse myoblast co-cultures were rinsed in PBS, replaced with media and incubated for a further 2 h following which the cells were fixed. Cells were processed using the Click-iT™ EdU Alexa Fluro™ 647 imaging Kit (Thermo Fisher) following the manufacturer's protocol.

[5] = system: CCR5; experiment: NAMPTcif competition with NAMPT binding to CCR5
Source text: (§1) As described above NAMPT, is a large homodimeric intracellular enzyme which acts as cytokine when released in the extracellular milieu. […] Moreover, the domain extends out from the core protein structure potentially facilitating receptor binding.

[6] = system: satellite cells; experiment: Satellite cell stimulation with NAMPTcif (proliferation); assay type: cell-based; conditions: compared to no stimulation control
Source text: as §1

T1 sequence (P51681 whole entry): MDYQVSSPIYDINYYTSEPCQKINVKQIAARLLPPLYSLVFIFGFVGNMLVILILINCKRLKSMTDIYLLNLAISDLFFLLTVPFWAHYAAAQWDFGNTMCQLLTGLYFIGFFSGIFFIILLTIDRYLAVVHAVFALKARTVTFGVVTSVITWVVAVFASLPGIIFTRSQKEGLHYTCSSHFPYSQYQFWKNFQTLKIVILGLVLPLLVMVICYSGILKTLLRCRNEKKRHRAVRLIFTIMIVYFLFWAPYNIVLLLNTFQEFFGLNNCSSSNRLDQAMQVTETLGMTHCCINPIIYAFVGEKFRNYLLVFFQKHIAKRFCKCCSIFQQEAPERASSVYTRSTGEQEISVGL

Kd [1]: 172 ± 18 nM
B1: hrNAMPT(1): recombinant human visfatin (PeproTech) (protein)
chain: PPNTSKVYSYFECREKKTENSKLRKVKYEETVFYGLQYILNKYLKGKVVTKEKIQEAKDVYKEHFQDDVFNEKGWNYILEKYDGHLPIEIKAVPEGFVIPRGNVLFTVENTDPECYWLTNWIETILVQSWYPITVATNSREQKKILAKYLLETSGNLDGLEYKLHDFGYRGVSSQETAGIGASAHLVNFKGTDTVAGLALIKKYYGTKDPVPGYSVPAAEHSTITAWGKDHEKDAFEHIVTQFSSVPVSVVSDSYDIYNACEKIWGEDLRHLIVSRSTQAPLIIRPDSGNPLDTVLKVLEILGKKFPVTENSKGYKLLPPYLRVIQGDGVDINTLQEIVEGMKQKMWSIENIAFGSGGGLLQKLTRDLLNCSFKCSYVVTNGLGINVFKDPVADPNKRSKKGRLSLHRTPAGNFVTLEEGKGDLEEYGQDLLHTVFKNGKVTKSYSFDEIRKNAQLNIELEAAHH
myoblast proliferation, factor added alone [2]: dose dependent increase in myoblast proliferation; also recorded: comparable and significant dose dependent increases in myoblast proliferation

B2: mrCCL4: recombinant murine CCL4/MIP-1β (PeproTech), cognate CCR5 ligand (protein)
chain: APMGSDPPTSCCFSYTSRQLHRSFVMDYYETSSLCSKPAVVFLTKRGRQICANPSEPWVTEYMSDLELN
myoblast proliferation, factor added alone [2]: functioned to enhance C2C12 proliferation
myoblast proliferation, factor added alone ([2]; listed as CCL4/MIP-1β): could be recapitulated
satellite cell proliferation on supplementation [3]: enhanced proliferation; also recorded: mirrored the results of NAMPT addition
proliferation external to the injury zone [4]: failed to demonstrate discrimination between injury region and sites external to the damage
wound site muscle stem cell proliferation [4]: functioned to enhance proliferation

B3: mrCCL8: recombinant murine CCL8/MCP-2 (PeproTech), canonical CCR5 ligand (protein)
chain: GPDKAPVTCCFHVLKLKIPLRVLKSYERINNIQCPMEAVVFQTKQGMSLCVDPTQKWVSEYMEILDQKSQILQP
myoblast proliferation, factor added alone [2]: functioned to enhance C2C12 proliferation
myoblast proliferation, factor added alone ([2]; listed as CCL8/MCP-2): could be recapitulated
increase in cell proliferation external to the site of injury vs control [4]: 43.03±4.46%
proliferation external to the injury zone [4]: also increased proliferation external to the injury zone
wound site muscle stem cell proliferation [4]: functioned to increase proliferation in the wound site
increase in muscle stem cell proliferation within the wound site vs control ([4]; supplementation): 28.34±4.48%

B4: hrNAMPT(2): recombinant human visfatin (Enzo Life Sciences) (protein)
chain: MNPAAEAEFNILLATDSYKVTHYKQYPPNTSKVYSYFECREKKTENSKLRKVKYEETVFYGLQYILNKYLKGKVVTKEKIQEAKDVYKEHFQDDVFNEKGWNYILEKYDGHLPIEIKAVPEGFVIPRGNVLFTVENTDPECYWLTNWIETILVQSWYPITVATNSREQKKILAKYLLETSGNLDGLEYKLHDFGYRGVSSQETAGIGASAHLVNFKGTDTVAGLALIKKYYGTKDPVPGYSVPAAEHSTITAWGKDHEKDAFEHIVTQFSSVPVSVVSDSYDIYNACEKIWGEDLRHLIVSRSTQAPLIIRPDSGNPLDTVLKVLEILGKKFPVTENSKGYKLLPPYLRVIQGDGVDINTLQEIVEGMKQKMWSIENIAFGSGGGLLQKLTRDLLNCSFKCSYVVTNGLGINVFKDPVADPNKRSKKGRLSLHRTPAGNFVTLEEGKGDLEEYGQDLLHTVFKNGKVTKSYSFDEIRKNAQLNIELEAAHH
myoblast proliferation, factor added alone [2]: dose dependent increase in myoblast proliferation; also recorded: comparable and significant dose dependent increases in myoblast proliferation

inhibition of NAMPT binding to CCR5 [5]: inhibits the binding of NAMPT to CCR5
B5: NAMPTcif: recombinantly produced C-terminal fragment of NAMPT, termed cytokine finger (cif) (protein)
chain: MSYVVTNGLGVNVFKDPVADPNKRSKKGRLSLHRTPAGNFVTLEEGKGDLEEYGHDLLHTVFKNGKVTKSYSFDEVRKNAQLNIEQDVAPHHHHHHH
satellite cell proliferation [6]: promotes proliferation in a dose-dependent manner
satellite cell proliferation ([6]; listed as cif): stimulates satellite cell proliferation in a dose-dependent manner

Reference: patent publication US20240041922A1, “METHODS AND COMPOSITIONS” (Monash University, priority 2020, published 2024)
